One molecule from paper PMC2873289, “A Helix Replacement Mechanism Directs Metavinculin Functions” (PLoS ONE, 2010) can be followed below.

Assay [1] addresses T1, metavinculin-ΔH1ΔH1′ (lacking residues 895–915 and 963–983) (human, UniProt P18206 1-1134, lacking residues 895–915 | lacking residues 963–983).
T1 construct: human metavinculin, full length (1-1,134) lacking residues 895-915 (H1) and 963-983 (H1′); source: E. coli BL21-DE3, purified (as full-length metavinculin); not shown: His8, N-terminal, kept
T1 sequence (looked up): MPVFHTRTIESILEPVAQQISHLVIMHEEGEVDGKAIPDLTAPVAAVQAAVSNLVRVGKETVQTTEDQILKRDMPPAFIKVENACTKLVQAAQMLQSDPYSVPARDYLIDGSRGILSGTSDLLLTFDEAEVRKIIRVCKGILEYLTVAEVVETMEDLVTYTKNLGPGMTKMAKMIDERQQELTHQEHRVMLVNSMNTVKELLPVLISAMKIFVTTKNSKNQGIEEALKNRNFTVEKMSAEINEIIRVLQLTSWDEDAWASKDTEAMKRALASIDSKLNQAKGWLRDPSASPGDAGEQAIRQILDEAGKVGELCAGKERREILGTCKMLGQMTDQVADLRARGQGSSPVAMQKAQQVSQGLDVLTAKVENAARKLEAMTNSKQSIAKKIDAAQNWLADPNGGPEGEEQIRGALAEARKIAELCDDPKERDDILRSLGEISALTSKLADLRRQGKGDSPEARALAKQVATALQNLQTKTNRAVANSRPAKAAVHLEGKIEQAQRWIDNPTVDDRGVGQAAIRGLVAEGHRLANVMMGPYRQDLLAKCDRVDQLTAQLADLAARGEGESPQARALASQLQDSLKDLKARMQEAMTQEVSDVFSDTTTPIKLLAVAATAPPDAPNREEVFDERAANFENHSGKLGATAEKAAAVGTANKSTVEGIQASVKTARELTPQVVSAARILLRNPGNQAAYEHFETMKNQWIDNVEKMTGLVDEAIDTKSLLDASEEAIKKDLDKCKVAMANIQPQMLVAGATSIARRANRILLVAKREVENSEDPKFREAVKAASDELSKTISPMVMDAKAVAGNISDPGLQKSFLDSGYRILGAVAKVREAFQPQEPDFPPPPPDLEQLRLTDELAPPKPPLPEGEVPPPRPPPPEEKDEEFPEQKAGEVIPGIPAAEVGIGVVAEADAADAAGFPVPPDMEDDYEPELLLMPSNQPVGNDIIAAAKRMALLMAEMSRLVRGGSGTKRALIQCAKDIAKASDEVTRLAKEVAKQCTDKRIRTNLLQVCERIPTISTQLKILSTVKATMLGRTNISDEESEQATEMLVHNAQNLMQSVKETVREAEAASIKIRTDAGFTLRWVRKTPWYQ
As to the kind of experiment: pull-down; GST-Vt (0.5 µM) on GST-Sepharose beads, with or without pre-incubation with 5 µM PIP2; 15 µM His8-tagged metavinculin or deletion mutant pre-activated with talin-VBS3, 1 hr 37°C; 20 mM Tris-HCl pH 8, 150 mM NaCl; eluted with glutathione, SDS-PAGE, Western blot. To be noted: both partners purified. (A western blot detects proteins with antibodies after separation by electrophoresis.)

For assay [2], the target named is T2, metavinculin-ΔH1 (lacking residues 895–915) (human, UniProt P18206 1-1134, lacking residues 895–915).
T2 construct: human metavinculin, full length (1-1,134) lacking residues 895-915 (α-helix H1): 1-894 joined to 916-1,134; also called MV-ΔH1; source: E. coli BL21-DE3, purified (as full-length metavinculin); not shown: His8, N-terminal, kept
T2 sequence (looked up): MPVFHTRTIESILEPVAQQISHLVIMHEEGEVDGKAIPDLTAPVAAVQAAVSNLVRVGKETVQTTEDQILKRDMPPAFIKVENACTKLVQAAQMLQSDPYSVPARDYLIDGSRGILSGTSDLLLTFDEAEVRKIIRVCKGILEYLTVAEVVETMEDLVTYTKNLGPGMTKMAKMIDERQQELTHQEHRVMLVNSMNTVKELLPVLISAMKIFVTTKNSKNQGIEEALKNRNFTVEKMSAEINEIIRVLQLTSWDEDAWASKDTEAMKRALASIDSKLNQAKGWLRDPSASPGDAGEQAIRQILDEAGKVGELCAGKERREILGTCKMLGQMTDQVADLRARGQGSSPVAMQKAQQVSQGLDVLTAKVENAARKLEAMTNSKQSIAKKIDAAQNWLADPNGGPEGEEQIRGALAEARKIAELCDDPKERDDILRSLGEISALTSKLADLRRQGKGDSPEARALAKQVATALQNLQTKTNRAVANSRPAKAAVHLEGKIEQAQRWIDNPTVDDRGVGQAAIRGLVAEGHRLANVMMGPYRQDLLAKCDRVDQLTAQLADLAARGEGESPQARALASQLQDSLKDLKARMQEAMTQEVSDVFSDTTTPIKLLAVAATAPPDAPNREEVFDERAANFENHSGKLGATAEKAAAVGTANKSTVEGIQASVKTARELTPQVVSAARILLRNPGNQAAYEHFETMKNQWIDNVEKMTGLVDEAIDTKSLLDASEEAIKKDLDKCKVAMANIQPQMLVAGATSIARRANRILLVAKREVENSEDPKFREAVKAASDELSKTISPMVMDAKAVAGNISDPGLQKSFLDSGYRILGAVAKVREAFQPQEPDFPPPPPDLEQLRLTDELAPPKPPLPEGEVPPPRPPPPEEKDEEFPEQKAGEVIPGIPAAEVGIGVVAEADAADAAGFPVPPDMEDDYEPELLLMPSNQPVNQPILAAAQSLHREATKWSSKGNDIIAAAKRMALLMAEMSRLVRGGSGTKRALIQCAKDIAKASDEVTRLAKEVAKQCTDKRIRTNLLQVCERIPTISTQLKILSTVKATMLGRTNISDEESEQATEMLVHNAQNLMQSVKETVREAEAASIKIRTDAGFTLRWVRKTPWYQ
The assay is described as above. Conditions: both partners purified.

B1: GST tagged vinculin tail domain (GST-Vt; residues 879–1,066) (domain or fragment, human, UniProt P18206-2 879-1066, looked up)
chain: EEKDEEFPEQKAGEVINQPMMMAARQLHDEARKWSSKGNDIIAAAKRMALLMAEMSRLVRGGSGTKRALIQCAKDIAKASDEVTRLAKEVAKQCTDKRIRTNLLQVCERIPTISTQLKILSTVKATMLGRTNISDEESEQATEMLVHNAQNLMQSVKETVREAEAASIKIRTDAGFTLRWVRKTPWYQ
notes: human vinculin tail domain, residues 879-1,066 of vinculin (1,066-residue isoform), cloned in pGEX-4T-1; source: E. coli BL21-DE3, purified (GSTrap FF, Superdex 75)
In the case of B1, the binding result in assay [1] and in assay [2] was “binds” each time.
